{"source": "paper PMC11331121", "assay_in_all_cases": "SPR", "key": {"H3K14ac peptide": {"target": "H3K14ac peptide"}, "H4K5ac peptide": {"target": "H4K5ac peptide"}, "H3K9ac peptide": {"target": "H3K9ac peptide"}, "H4K8ac peptide": {"target": "H4K8ac peptide"}}, "data": [{"binder": "triple Tudor domains (3TD) of Drosophila Eggless/SetDB1, wild type (domain or fragment) SDYVHEVPPPGEIVRPPIQLGETYYAVKNKAIASWVSIKVIEFTESTAINGNTMKSYKIRYLNTPYQMIKTVTAKHIAYFEPPPVRLTIGTRVIAYFDGTTLSRGKDKGVVQSAFYPGIIAEPLKQANRYRYLIFYDDGYTQYVPHRDVRLVCQASEKVWEDVHAASRDFIQKYVEKYSVDRPMVQCTRGQSMTTESNGTWLYARVIDIDCSLVLMQFEGDKNHTEWIYRGSLRLGPVFRETQNNMNSSSAQQLRVP", "values": [{"measurement": "Kd", "setting": "H3K14ac peptide", "value": 339, "unit": "µM"}, {"measurement": "Kd", "setting": "H4K5ac peptide", "value": 925, "unit": "µM"}, {"measurement": "Kd", "setting": "H3K9ac peptide", "value": 823, "unit": "µM"}, {"measurement": "Kd", "setting": "H4K8ac peptide", "value": 654, "unit": "µM"}]}]}
